Values of other authors in publication PMC8799529.

Molecular target: p38 MAPK (Homo sapiens) (UniProt Q16539)
Sequence of UniProt Q16539 (Q16539 2-360): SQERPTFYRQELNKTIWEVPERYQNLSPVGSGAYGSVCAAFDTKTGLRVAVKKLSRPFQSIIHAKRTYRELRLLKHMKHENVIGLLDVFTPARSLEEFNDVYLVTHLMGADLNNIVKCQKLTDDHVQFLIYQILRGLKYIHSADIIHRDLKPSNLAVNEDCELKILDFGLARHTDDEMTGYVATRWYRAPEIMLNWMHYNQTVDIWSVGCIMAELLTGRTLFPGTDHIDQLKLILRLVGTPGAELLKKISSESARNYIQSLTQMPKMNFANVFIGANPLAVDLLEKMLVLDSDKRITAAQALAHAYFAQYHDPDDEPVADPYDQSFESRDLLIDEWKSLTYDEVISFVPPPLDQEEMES

Kd: 2.5 nM
Substance: MK2 (from UniProt P49137)
